In patent WO2021160116A1 (dated 2021):

Target: T1, human FcRn-β2M complex (human FcRn extracellular region with His-tagged human β2M) (human, UniProt P55899 24-297; P61769 21-119, randomly biotinylated in the ELISA (biotin-hFcRn))
T1 construct: Purified by Ni-Sepharose and Superdex200; Used biotinylated in the ELISA and as analyte in Biacore; also called FcRn antigen; hFcRn; not shown: His tag
Test: ELISA, biotin-hFcRn on NeutrAvidin plate, pH 6.0

EC50: 0.9 µg/mL
B1: Argx-113 (other)
chain: DKTHTCPPCPAPELLGGPSVFLFPPKPKDTLYITREPEVTCVVVDVSHEDPEVKFNWYVDGVEVHNAKTKPREEQYNSTYRVVSVLTVLHQDWLNGKEYKCKVSNKALPAPIEKTISKAKGQPREPQVYTLPPSRDELTKNQVSLTCLVKGFYPSDIAVEWESNGQPENNYKTTPPVLDSDGSFFLYSKLTVDKSRWQQGNVFSCSVMHEALKFHYTQKSLSLSPGK
